Data: US20240101687A1 (ABL BIO, published 2024)
Each block holds one binder with its values, some of them ahead of it.

Assays:
[1] = target: T1, human IGF1R extracellular domain, His-tagged (human, UniProt P08069 31-932); experiment: SPR (Biacore), human IGF1R ECD-His captured by anti-His antibody on CM4 chip, 1564-IgG as analyte, bivalent analyte fit, 25 C; lower panel
T1 construct: Bought (R&D Systems 391-GR or Sino Biological 10164-H08H); also called recombinant IGF1R; ECD of IGF1R
Procedure: (§1) The anti-his antibody against the His tag bound to the human IGF1R ECD as an antigen was diluted to 20 μg/ml in acetate pH4.0 buffer, and then immobilized in the reference/analytic channel of the CM4 chip to 10,000 RU as a target RU according to the amine coupling method. During capture, PBS was used as a running buffer, and the flow rate was maintained at 30 μL/min. During association/dissociation, the flow rate was 40 μL/min, and PBS was used as the running buffer. The association/dissociation was 5 minutes and 20 minutes, respectively.

[2] = target: T1, human IGF1R extracellular domain, …; experiment: SPR (Biacore T200), His-tagged human IGF1R ECD captured by anti-His antibody on CM4 chip, bivalent model; 1564 IgG
Procedure: as §1

[3] = target: T1, human IGF1R extracellular domain, …; experiment: SPR (Biacore), human IGF1R ECD-His captured by anti-His antibody on CM4 chip, 1564-IgG as analyte, bivalent analyte fit, 25 C; upper panel
Procedure: as §1

[4] = target: T1, human IGF1R extracellular domain, …; experiment: ELISA, IGF1R coated, anti-human Fab-HRP
Procedure: To this end, firstly, human, monkey, mouse and rat IGF1R antigens were diluted to 1 ug/ml, added to each well 100 ul, and reacted at 4° C. for 15 hours to be coated on the bottom of the plate. After removing the supernatant, 200 ul of PBS buffer containing 3% BSA was treated in each well to block non-specific binding. The anti-IGF1R antibodies were diluted by 5 times in PBSB (BSA 3% in PBS) at a maximum concentration of 400 nM, treated in each well, and reacted at 37° C. for 1 hour. Then, after washing with PBS buffer 5 times, the anti-human Fab HRP recognizing the Fab portion of the bound antibody was diluted 1:20000 was treated at 100 ul of each well, and reacted at 37° C. for 1 hour. The product was washed 5 times with PBS buffer and the color development was performed with TMB (Tetramethylbenzidine, Sigma, T0440) according to the manufacturer's method. […] When many samples are used in the ELISA analysis, the plates were divided into two.

[5] = target: T2, mouse IGF1R on bEND.3 brain endothelial cells (mouse, UniProt Q60751 31-1373); experiment: FACS on bEND.3 mouse brain endothelial cells; MFI of secondary Ab only 3.20
T2 construct: whole, on cells; also called IGF1R expressed on the surface of brain endothelial cells

[6] = target: T3, human alpha-synuclein aggregates (fibrils) (human, UniProt P37840 1-140); experiment: SPR (BIAcore), antibody captured on Protein A chip, alpha-Syn fibril as analyte, 1:1 binding fit, 25 C
Aβ42 (Monomer) = target: T4, Aβ42 (Monomer) (human, UniProt P05067); experiment: dot blot, monomer and fibril of each protein spotted in rising amounts, antibody as probe
T4 construct: recombinant, monomer (not aggregated); m20 is the aggregated form; also called amyloid beta1-42 monomer
Procedure: (§2) The specific binding ability of the antibodies to the alpha-synuclein aggregate was analyzed by reacting with a blot.

[7] = target: T5, amyloid beta1-42 aggregates (UniProt P05067 672-713); experiment: as above
T5 construct: domain: amyloid beta1-42; aggregates prepared by Prof; Seung-jae Lee; also called amyloid beta1-42-derived aggregates
Procedure: as §2

[8] = target: T2, mouse IGF1R on bEND.3 brain endothelial …; experiment: FACS on bEND.3 mouse brain endothelial cells
[9] = target: T3, human alpha-synuclein aggregates …; experiment: ELISA, alpha-synuclein aggregates coated, antibody titrated up to 400 nM; C of the 4-P fit
Procedure: (§3) The alpha-synuclein aggregates were coated on a 96-well plate at a concentration of 1 ug/ml for 18 hours, and after washing, was treated with each antibody by diluting by 5 times from 400 nM. The bound antibodies were bound to anti-human Fc-HRP and then performed by color development with TMB solution, to measure the degree of binding of the antibody.

human beta-synuclein = target: T6, human beta-synuclein (human, UniProt Q16143 1-134, limits assumed); experiment: ELISA, human beta-synuclein coated at 100 ng/ml
T6 construct: bought
Source text: (§4) For the positive control, RP-bound goat anti-rabbit was used as a detection antibody.

[10] = target: T1, human IGF1R extracellular domain, …; experiment: ELISA on coated IGF1R, antibody titrated up to 400 nM; C of the 4-P fit, D 2.68; curve at baseline up to about 3 nM, about 0.8 at 80 nM and 1.75 at 400 nM, no plateau in the data; the text says the single antibody did not bind
[11] = target: T3, human alpha-synuclein aggregates …; experiment: SPR (BIAcore), antibody captured on Protein A chip, alpha-synuclein fibril (sample aSyn180330) as analyte, 1:1 binding fit, 25 C
Procedure: (§5) The running buffer, analyte dilution, and the sample dilution buffer were HBS-EP. […] For the capture, the monomer was for RU of 800 (theoretical), and a fibril was for RU of 100 (theoretical). The capture phase was performed at contact time of 60 seconds, a flow rate of 30 μl/min, and a stabilization period of 180 seconds. The association phase was performed at the association time of 120 seconds and the flow rate was 30 μl/min. The dissociation phase was performed at the dissociation time of 360 seconds and the flow rate of 30 l/min. The regeneration phase was performed twice time at the regeneration time of 240 seconds (primary) and 60 seconds (secondary) and a flow rate of 30 μl/min. The fitting was carried out suing 1:1 binding model, and the evaluation software was BIACore T200 Evaluation software (GE healthcare).

Tau protein aggregates = target: T7, Tau protein aggregates (UniProt P10636-8 1-441, limits assumed); experiment: dot blot
T7 construct: aggregates prepared by Prof; Seung-jae Lee; also called tau-derived aggregates

[12] = target: T3, human alpha-synuclein aggregates …; experiment: BIAcore as in Example 4-3, α-syn aggregates
Procedure: as §5

human gamma-synuclein = target: T8, human gamma-synuclein (human, UniProt O76070 1-127, limits assumed); experiment: ELISA, human gamma-synuclein coated at 100 ng/ml
T8 construct: bought
Source text: as §4

[13] = target: T3, human alpha-synuclein aggregates …; experiment: ELISA, alpha-synuclein aggregates coated at 1 ug/ml, antibody titrated 5-fold from 400 nM, anti-human Fc-HRP; C of the 4-P fit
Procedure: as §3

[14] = target: T3, human alpha-synuclein aggregates …; experiment: sandwich ELISA, antibody coated 0.04-400 nM, fibril aggregates 2000 ng/ml
Procedure: Specifically, each antibody was diluted at 1/10 ratio of concentrations 0.04 to 400 nM and was coated on a 96-well plate, and then each well was treated with synuclein fibril aggregates were treated at 2000 ng/ml. After washing with 1×PBS, streptavidin conjugated with HRP and secondary antibody conjugate with biotin was treated and then reacted with TMB as a substrate. The absorbance was measured.

[15] = target: T1, human IGF1R extracellular domain, …; experiment: ELISA on coated IGF1R, antibody titrated up to 400 nM; C of the 4-P fit, D 0.945; curve at baseline up to 16 nM, about 0.2 at 80 nM and 0.75 at 400 nM, no plateau in the data; the text says the single antibody did not bind

T2 sequence (Q60751 31-1373): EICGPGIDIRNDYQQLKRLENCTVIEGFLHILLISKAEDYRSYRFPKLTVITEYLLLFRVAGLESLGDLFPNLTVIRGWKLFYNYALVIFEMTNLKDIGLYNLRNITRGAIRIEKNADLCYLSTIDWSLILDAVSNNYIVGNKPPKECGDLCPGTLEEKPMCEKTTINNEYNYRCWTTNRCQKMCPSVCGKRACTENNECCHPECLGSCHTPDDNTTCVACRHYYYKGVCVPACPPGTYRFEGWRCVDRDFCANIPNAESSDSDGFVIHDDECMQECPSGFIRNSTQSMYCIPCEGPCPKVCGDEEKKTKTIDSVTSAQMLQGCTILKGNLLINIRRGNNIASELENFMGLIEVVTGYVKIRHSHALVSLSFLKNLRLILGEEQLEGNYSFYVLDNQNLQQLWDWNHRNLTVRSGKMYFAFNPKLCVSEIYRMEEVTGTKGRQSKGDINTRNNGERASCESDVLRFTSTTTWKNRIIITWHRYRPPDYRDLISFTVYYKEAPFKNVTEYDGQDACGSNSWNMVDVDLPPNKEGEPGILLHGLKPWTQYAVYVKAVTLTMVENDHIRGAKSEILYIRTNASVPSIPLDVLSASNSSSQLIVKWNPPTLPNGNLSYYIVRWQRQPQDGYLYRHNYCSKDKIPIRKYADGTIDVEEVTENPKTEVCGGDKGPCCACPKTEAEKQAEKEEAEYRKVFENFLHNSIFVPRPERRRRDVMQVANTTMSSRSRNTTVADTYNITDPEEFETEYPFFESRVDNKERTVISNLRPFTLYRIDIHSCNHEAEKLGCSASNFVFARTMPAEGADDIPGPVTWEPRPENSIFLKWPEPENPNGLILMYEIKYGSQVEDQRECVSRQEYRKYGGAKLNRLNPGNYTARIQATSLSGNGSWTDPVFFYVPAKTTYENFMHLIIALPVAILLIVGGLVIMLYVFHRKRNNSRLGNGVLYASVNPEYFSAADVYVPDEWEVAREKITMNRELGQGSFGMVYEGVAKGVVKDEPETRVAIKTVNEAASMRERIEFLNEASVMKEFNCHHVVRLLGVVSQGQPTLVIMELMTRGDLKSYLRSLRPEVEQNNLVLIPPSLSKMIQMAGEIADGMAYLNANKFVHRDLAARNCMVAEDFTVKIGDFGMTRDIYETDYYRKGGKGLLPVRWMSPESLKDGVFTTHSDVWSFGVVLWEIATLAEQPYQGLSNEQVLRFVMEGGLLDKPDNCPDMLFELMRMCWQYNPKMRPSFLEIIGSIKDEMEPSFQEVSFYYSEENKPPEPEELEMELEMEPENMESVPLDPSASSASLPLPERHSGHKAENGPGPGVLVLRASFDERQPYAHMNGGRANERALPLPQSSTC
T6 sequence (Q16143 whole entry): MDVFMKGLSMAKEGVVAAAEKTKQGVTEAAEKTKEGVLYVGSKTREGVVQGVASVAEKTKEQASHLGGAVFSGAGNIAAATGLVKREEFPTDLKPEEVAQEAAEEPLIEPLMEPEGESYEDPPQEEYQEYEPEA
T7 sequence (P10636 other isoform, or with tags, fused parts or gaps limits assumed): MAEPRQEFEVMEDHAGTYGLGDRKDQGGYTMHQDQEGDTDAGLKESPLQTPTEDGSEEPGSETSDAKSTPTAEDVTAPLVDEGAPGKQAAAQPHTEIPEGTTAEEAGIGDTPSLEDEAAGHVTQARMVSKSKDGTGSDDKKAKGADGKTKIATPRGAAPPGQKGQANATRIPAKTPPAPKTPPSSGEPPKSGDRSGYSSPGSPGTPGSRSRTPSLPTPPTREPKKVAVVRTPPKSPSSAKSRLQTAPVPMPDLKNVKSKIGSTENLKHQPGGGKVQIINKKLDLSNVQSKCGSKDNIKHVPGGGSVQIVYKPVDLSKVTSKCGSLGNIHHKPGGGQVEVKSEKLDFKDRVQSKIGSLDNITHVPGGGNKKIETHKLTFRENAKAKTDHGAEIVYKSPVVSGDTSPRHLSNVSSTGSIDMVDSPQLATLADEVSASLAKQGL
T8 sequence (O76070 whole entry): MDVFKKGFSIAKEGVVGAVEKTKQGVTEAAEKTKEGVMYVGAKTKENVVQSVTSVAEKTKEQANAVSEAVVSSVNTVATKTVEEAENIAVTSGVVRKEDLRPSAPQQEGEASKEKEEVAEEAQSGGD

- koff [1]: 2.53e-06 s⁻¹
- Kd [2]: 2.53 nM
- koff [3]: 2.41e-06 s⁻¹
- kon [3]: 902 M⁻¹ s⁻¹
- EC50 [4]: 0.0823 nM
- MFI [5]: 7.55
B1: 1564 IgG (antibody, V domains shown)
VH: EVQLLESGGGLVQPGGSLRLSCAASGFTFSSYDMSWVRQAPGKGLEWVSAISYDNGNTYYADSVKGRFTISRDNSKNTLYLQMNSLRAEDTAVYYCAKGVLTTLMNWFDYWGQGTLVTVSS
VL: QSVLTQPPSASGTPGQRVTISCTGSSSNIGSNDVSWYQQLPGTAPKLLIYANSNRPSGVSDRFSGSKSGTSASLAISGLRSEDEADYYCGAWDDSLNGYVFGGGTKLTVLR

- koff [6]: 8.88e-05 s⁻¹
- kon [6]: 193000 M⁻¹ s⁻¹
- binding result (Aβ42 (Monomer)): no binding
- binding result [7]: no binding
- binding result [8]: no binding
- EC50 [9]: 1.27 nM
- binding result (human beta-synuclein): no binding
- EC50 [10]: 201 nM
- koff [11]: 0.000563 s⁻¹
- kon [11]: 609000 M⁻¹ s⁻¹
- binding result (Tau protein aggregates): no binding
- Kd [12]: 0.0247 nM
- MFI [5]: 3.26
- binding result (human gamma-synuclein): no binding
- EC50 [13]: 33.8 nM
- EC50 [14]: 12.5 nM
- EC50 [15]: 196 nM
B2: chimeric 11F11 antibody (antibody, V domains shown)
VH: EVQLQESGGGLVQPGGSLRLSCATSGFTFSDFYMEWVRQPPGKRLEWIAASRNKANDYTTEYSASVKGRFIVSRDTSQSILYLQMNALRAEDTAIYYCARDAHGKPFAYWGQGTLVTVSA
VL: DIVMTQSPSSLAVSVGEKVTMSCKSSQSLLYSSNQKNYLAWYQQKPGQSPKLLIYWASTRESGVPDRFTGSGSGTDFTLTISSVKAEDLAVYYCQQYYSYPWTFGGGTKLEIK
notes: also called Ch11F11; ch11F11
